From paper PMC11811891, “Structural insights into human TFIIIC promoter recognition” (Science Advances, 2023) come the findings set out here.

The Kd is the equilibrium constant for the complex coming apart.

Series [1] deals with TFIIIC220;TFIIIC110;TFIIIC102;TFIIIC90;TFIIIC63;TFIIIC35 (human;human;human;human;human;human, UniProt Q12789;Q8WUA4;Q9Y5Q9;Q9UKN8;Q9Y5Q8;Q969F1 1-2109;1-911;1-886;1-822;1-519;1-213, |||||). Put plainly: filter binding; 150 mM KCl, 2 mM MgCl2, 4 C; Filter binding: 20 mM Tris-HCl pH 7.5, 150 mM KCl, 2 mM MgCl2, 5 mM DTT, 30 min 4 C, ~0.5 nM DNA; EMSA: 20 mM Hepes pH 8, 225 mM KCl, 2 mM MgCl2, 5 mM DTT, RT 10 min, 0.8% agarose gel at 4 C. To be noted: protein: recombinant;recombinant;recombinant;recombinant;recombinant;recombinant; tags: C-terminal 3xFLAG;N-terminal TEV-cleavable His;;;N-terminal TEV-cleavable His;; copies: 1;1;1;1;1;1; label: 5'-32P; blunt. (In general: In EMSA bound probe runs differently from free probe, usually more slowly.)

For series [2], the target named is T1, human TFIIIC subunit TFIIIC102 (human, UniProt Q9Y5Q9 1-886).
T1 construct: TFIIIC102, subunit of human TFIIIC; No truncation is described; also called τ131 in yeast (homolog); GTF3C3; source: Sf21 insect cells, baculovirus, coexpressed with the other five hTFIIIC subunits; purified (anti-FLAG M2 agarose, Capto HiRes Q)
T1 sequence: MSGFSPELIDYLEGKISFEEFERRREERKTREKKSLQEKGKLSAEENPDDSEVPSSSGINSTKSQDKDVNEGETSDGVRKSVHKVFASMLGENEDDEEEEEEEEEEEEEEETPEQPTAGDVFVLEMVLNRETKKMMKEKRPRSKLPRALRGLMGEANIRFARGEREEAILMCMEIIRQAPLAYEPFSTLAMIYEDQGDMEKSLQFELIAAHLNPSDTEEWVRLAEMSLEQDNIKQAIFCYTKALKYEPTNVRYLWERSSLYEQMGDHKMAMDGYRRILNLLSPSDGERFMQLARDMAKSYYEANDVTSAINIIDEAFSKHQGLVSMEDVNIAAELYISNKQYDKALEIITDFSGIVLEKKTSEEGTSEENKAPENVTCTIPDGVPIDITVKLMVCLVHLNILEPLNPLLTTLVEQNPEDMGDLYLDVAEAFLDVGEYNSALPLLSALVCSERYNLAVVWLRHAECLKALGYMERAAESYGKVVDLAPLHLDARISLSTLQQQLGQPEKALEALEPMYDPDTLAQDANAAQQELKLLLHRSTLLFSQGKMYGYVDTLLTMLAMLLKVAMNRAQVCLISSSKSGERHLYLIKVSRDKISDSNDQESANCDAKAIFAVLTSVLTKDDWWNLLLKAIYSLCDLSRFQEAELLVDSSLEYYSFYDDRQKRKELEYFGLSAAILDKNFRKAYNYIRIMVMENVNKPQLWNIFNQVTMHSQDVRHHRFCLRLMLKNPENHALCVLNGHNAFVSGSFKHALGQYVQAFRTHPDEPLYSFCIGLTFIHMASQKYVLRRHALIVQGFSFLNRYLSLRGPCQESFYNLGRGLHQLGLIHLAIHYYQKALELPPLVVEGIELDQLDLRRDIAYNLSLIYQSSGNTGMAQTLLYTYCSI
Put plainly: cryo-EM structure; purified hTFIIIC (3.17 μM) alone or with human TRR-TCT3-2 tRNA gene DNA at a 1:1 molar ratio; EM buffer 20 mM Hepes pH 8, 225 mM KCl, 2 mM MgCl2, 5 mM DTT; 0.1% octyl-β-glucoside; separate reconstructions of τA and of dimeric τB. The conditions noted are these: both partners purified.

Series [3] deals with T2, human TFIIIC subunit TFIIIC220 (human, UniProt Q12789 1-2109).
T2 construct: TFIIIC220, largest subunit of human TFIIIC; 2109 amino acids as printed; No truncation is described; the expected mass of 624 kDa is that of the intact complex; also called τ138 in yeast (homolog); GTF3C1; source: Sf21 insect cells, baculovirus, coexpressed with the other five hTFIIIC subunits; purified (anti-FLAG M2 agarose, Capto HiRes Q); not shown: 3x FLAG, C-terminal, kept
The series is described as above. To be noted: both partners purified.

T2 sequence (Q12789 whole entry, the tested form may be a part): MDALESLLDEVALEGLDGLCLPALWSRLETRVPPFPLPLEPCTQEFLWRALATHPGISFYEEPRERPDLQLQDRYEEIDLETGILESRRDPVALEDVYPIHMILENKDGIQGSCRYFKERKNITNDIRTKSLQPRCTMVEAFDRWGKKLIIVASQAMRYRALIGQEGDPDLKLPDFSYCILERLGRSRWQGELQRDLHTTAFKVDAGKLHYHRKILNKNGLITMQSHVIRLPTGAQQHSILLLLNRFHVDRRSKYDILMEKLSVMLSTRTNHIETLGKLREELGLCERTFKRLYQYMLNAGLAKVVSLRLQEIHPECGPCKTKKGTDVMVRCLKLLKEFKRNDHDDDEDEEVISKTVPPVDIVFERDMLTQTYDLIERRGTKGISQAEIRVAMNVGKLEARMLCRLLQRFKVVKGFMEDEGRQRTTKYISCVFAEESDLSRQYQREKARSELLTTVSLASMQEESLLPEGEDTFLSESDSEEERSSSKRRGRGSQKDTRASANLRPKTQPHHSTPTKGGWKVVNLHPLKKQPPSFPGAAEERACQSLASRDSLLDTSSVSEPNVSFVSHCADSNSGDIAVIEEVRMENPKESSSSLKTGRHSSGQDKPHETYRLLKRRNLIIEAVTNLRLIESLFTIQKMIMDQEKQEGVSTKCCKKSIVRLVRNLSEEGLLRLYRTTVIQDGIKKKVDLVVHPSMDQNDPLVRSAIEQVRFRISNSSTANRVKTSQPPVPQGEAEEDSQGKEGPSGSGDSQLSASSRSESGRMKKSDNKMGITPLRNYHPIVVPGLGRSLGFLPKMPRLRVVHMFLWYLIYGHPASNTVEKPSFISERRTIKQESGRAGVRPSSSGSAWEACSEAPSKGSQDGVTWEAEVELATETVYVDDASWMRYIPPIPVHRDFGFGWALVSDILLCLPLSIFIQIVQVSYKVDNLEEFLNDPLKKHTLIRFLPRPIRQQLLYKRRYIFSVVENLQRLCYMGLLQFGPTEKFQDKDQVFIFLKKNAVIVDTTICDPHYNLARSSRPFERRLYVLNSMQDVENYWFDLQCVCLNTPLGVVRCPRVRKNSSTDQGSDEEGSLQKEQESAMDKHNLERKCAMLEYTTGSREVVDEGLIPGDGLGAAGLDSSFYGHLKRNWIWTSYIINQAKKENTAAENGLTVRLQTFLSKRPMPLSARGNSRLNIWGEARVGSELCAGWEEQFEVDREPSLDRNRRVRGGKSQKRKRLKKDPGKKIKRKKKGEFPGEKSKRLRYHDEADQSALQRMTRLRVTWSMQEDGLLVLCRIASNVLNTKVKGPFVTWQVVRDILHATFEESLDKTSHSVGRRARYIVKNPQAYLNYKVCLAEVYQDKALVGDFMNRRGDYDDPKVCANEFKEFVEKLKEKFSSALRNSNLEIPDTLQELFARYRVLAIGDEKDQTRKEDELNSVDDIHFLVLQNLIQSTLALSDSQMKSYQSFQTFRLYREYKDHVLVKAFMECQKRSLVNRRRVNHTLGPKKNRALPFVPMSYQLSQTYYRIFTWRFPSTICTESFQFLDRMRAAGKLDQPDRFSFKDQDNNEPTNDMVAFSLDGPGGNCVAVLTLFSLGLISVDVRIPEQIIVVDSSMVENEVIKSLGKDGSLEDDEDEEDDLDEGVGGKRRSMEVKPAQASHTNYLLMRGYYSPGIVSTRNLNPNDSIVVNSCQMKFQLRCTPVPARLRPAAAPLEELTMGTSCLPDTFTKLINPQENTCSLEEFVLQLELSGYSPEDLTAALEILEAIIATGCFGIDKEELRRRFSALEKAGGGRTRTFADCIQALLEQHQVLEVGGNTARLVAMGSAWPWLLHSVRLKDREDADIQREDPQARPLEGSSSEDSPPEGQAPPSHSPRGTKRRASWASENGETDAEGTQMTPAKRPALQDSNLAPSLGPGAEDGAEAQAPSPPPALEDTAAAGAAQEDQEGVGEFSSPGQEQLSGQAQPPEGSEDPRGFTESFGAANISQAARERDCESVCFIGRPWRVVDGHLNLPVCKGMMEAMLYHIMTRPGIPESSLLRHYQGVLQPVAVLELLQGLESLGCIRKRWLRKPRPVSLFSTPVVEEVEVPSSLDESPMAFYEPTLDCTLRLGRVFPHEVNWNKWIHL
TFIIIC220;TFIIIC110;TFIIIC102;TFIIIC90;TFIIIC63;TFIIIC35, sequence (Q12789 whole entry, chain 1 of 3): as the sequence (Q12789 whole entry, the tested form may be a part) above
TFIIIC220;TFIIIC110;TFIIIC102;TFIIIC90;TFIIIC63;TFIIIC35, sequence (Q8WUA4 whole entry, chain 2 of 3): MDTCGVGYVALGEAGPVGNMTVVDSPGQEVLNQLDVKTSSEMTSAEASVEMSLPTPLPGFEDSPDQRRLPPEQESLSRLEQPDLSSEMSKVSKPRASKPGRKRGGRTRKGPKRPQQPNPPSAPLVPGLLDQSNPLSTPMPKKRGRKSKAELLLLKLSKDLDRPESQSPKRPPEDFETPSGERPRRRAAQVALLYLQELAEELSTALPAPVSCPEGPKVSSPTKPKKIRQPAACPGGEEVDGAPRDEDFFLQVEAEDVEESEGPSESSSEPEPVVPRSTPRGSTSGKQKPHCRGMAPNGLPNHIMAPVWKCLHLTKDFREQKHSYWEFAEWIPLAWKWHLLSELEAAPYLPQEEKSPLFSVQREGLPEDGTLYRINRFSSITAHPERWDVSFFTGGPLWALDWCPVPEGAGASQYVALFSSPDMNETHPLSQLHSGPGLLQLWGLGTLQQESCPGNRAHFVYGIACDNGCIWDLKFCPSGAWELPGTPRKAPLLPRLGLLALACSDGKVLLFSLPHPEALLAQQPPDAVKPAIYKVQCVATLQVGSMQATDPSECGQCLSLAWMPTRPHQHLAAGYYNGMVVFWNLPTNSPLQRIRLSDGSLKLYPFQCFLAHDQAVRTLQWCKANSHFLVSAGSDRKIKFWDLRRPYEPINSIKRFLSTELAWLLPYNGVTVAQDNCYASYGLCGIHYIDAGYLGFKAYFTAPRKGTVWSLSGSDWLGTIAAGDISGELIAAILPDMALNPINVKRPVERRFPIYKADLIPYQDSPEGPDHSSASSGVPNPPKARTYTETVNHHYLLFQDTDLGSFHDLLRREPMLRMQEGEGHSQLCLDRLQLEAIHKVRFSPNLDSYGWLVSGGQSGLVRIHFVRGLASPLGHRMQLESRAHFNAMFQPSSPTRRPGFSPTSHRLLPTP
TFIIIC220;TFIIIC110;TFIIIC102;TFIIIC90;TFIIIC63;TFIIIC35, sequence (Q9UKN8 whole entry, chain 4 of 3): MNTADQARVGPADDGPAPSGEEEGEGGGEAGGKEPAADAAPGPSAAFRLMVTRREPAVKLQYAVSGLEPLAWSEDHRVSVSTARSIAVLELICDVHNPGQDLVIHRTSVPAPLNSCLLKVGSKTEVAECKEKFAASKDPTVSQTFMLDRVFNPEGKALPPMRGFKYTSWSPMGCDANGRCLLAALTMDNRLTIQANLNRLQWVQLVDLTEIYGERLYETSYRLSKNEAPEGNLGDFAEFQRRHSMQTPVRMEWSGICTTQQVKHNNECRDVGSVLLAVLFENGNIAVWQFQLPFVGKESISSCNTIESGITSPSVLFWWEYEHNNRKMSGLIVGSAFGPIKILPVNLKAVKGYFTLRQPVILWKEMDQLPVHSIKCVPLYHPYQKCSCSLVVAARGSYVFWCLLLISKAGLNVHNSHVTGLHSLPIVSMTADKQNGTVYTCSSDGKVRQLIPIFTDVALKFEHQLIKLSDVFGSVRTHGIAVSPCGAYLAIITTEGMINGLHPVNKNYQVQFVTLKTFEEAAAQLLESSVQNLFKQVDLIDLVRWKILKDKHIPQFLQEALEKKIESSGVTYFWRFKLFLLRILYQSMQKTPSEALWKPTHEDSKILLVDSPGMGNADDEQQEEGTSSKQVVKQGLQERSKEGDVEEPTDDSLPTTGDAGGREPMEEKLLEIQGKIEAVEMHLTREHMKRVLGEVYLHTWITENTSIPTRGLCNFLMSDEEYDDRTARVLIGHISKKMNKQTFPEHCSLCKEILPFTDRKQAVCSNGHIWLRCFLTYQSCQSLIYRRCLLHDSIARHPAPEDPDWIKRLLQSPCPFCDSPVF

B1: TRR-TCT3-2 tRNA gene, 32P-labeled (dsDNA)
DNA 1: ACGTGTCTGGCTCTGTGGCGCAATGGATAGCGCATTGGACTTCTAGATAGTTAGAGAAATTCAAAGGTTGTGGGTTCGAGTCCCACAGAGTCGCTTTT
DNA 2: AAAAGCGACTCTGTGGGACTCGAACCCACAACCTTTGAATTTCTCTAACTATCTAGAAGTCCAATGCGCTATCCATTGCGCCACAGAGCCAGACACGT
As to B1, the Kd in series [1] was found to be 40 nM.

B2: TFIIIC35-TFIIIC63 heterodimer (complex, human)
chain 1: MAAAADERSPEDGEDEEEEEQLVLVELSGIIDSDFLSKCENKCKVLGIDTERPILQVDSCVFAGEYEDTLGTCVIFEENVEHADTEGNNKTVLKYKCHTMKKLSMTRTLLTEKKEGEENIGGVEWLQIKDNDFSYRPNMICNFLHENEDEEVVASAPDKSLELEEEEIQMNDSSNLSCEQEKPMHLEIEDSGPLIDIPSETEGSVFMETQMLP
chain 2: MAAEAADLGLGAAVPVELRRERRMVCVEYPGVVRDVAKMLPTLGGEEGVSRIYADPTKRLELYFRPKDPYCHPVCANRFSTSSLLLRIRKRTRRQKGVLGTEAHSEVTFDMEILGIISTIYKFQGMSDFQYLAVHTEAGGKHTSMYDKVLMLRPEKEAFFHQELPLYIPPPIFSRLDAPVDYFYRPETQHREGYNNPPISGENLIGLSRARRPHNAIFVNFEDEEVPKQPLEAAAQTWRRVCTNPVDRKVEEELRKLFDIRPIWSRNAVKANISVHPDKLKVLLPFIAYYMITGPWRSLWIRFGYDPRKNPDAKIYQVLDFRIRCGMKHGYAPSDLPVKAKRSTYNYSLPITVKKTSSQLVTMHDLKQGLGPSGTSGARKPASSKYKLKDSVYIFREGALPPYRQMFYQLCDLNVEELQKIIHRNDGAENSCTERDGWCLPKTSDELRDTMSLMIRQTIRSKRPALFSSSAKADGGKEQLTYESGEDEEDEEEEEEEEEDFKPSDGSENEMETEILDYV
notes: TFIIIC35, subunit of human TFIIIC; as the chain of m6; TFIIIC63, subunit of human TFIIIC; as the chain of m5; source: Sf21 insect cells, baculovirus, coexpressed within the six-subunit hTFIIIC complex; purified (anti-FLAG M2 agarose, Capto HiRes Q)
With B2, the binding result in series [2] and in series [3] was “binds” in each case.
